Experimental findings from patent US20170334973A1 are described below.

By EC50 is commonly meant the concentration at which the effect is half-maximal. Low values mean higher potency in that assay, high ones lower potency in that assay.

Assay [1] addresses EBOV GPdTM (Ebola virus) (UniProt Q05320).
Assay [2] has as its target SUDV GPdTM (Sudan virus) (UniProt Q66814).
The target in assay [3] is EBOV GPdTM (Ebola virus) (UniProt Q05320). This is another data set of the same source.
Assay [4] addresses RESTV GP (Reston virus) (UniProt Q66799).
Assay [5] concerns the target SUDV GPdTM (Sudan virus) (UniProt Q66814). The source holds these as a separate data set.
In assay [6] the target is EBOV GPdTM (Ebola virus) (UniProt Q05320). The source holds these as a separate data set.
Assay [7] deals with RESTV GP (Reston virus) (UniProt Q66799). This is another data set of the same source.
Assay [8] concerns the target SUDV GPdTM (Sudan virus) (UniProt Q66814). The source holds these as a separate data set.

Where two headings read alike, the source gives them in different places. Some results are limits rather than exact numbers.

For the substance FVM09 (antibody), the EC50 is 7.2 nM with EBOV GPdTM (Ebola virus) [1]; 9.73 nM with SUDV GPdTM (Sudan virus) [2]; 8 ng/mL with EBOV GPdTM (Ebola virus) [3]; 0.01 µg/mL with RESTV GP (Reston virus) [4]; 0.011 µg/mL in the assay with SUDV GPdTM (Sudan virus) [5]; below 0.015 µg/mL with EBOV GPdTM (Ebola virus) [6]. Also, the EC50 in the assay with RESTV GP (Reston virus) [7] and with SUDV GPdTM (Sudan virus) [8] was below 0.015 µg/mL throughout.
